Data taken from the supplement of paper PMC9112550, “Optimization of the antimicrobial peptide Bac7 by deep mutational scanning” (BMC Biology, 2022).

tested on: Escherichia coli TOP10; experiment: shrunken log2 fold change of peptide-encoding DNA abundance (4.5 h post-induction vs induction); higher = less antimicrobial activity (less host growth inhibition); conditions: time post-induction: 4.5 h; library: site-saturation at positions 5, 18, 19, 20
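Also: peptides expressed intracellularly from a pBAD plasmid library in pooled LB shake-flask culture, induced with 0.3% L-arabinose, DNA abundance read by NGS, three biological replicates, DESeq2 with apeglm shrinkage.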

| Sequence | shrunken log2 fold change |
| --- | --- |
| RRIRWRPPRLPRPRPRPTNNPRP | 0.0375 |
| RRIRFRPPRLPRPRPRPREWPRP | 0.112 |
| RRIRARPPRLPRPRPRPRKHPRP | 0.146 |
| RRIRMRPPRLPRPRPRPAIGPRP | 0.0174 |
| RRIRDRPPRLPRPRPRPFQNPRP | 0.0838 |
| RRIRRRPPRLPRPRPRPDLIPRP | 0.0201 |
| RRIRERPPRLPRPRPRPSRYPRP | -0.481 |
| RRIRKRPPRLPRPRPRPSYWPRP | -0.144 |
| RRIRQRPPRLPRPRPRPKMIPRP | -0.231 |
| RRIRSRPPRLPRPRPRPQLIPRP | -0.0943 |
| RRIRERPPRLPRPRPRPAAGPRP | 0.315 |
| RRIRGRPPRLPRPRPRPLNKPRP | 0.11 |
| RRIRHRPPRLPRPRPRPIMPPRP | -0.74 |
| RRIRHRPPRLPRPRPRPKWSPRP | 0.0617 |
| RRIRSRPPRLPRPRPRPEGAPRP | 1.95 |
| RRIRPRPPRLPRPRPRPQGYPRP | -0.0854 |
| RRIRKRPPRLPRPRPRPETYPRP | -0.00198 |
| RRIRSRPPRLPRPRPRPSGLPRP | 0.177 |
| RRIRKRPPRLPRPRPRPHPEPRP | 0.39 |
| RRIRQRPPRLPRPRPRPWTEPRP | 0.0355 |
| RRIRRRPPRLPRPRPRPQECPRP | -0.0184 |
| RRIRRRPPRLPRPRPRPMHWPRP | 0.148 |
| RRIRVRPPRLPRPRPRPQMTPRP | -0.0158 |
| RRIRVRPPRLPRPRPRPTLFPRP | -0.0123 |
| RRIRIRPPRLPRPRPRPCRAPRP | -0.284 |

| Sequence | shrunken log2 fold change |
| --- | --- |
| RRIRARPPRLPRPRPRPSRFPRP | 0.125 |
| RRIRLRPPRLPRPRPRPDVKPRP | -0.488 |
| RRIRDRPPRLPRPRPRPHWDPRP | -0.0788 |
| RRIRKRPPRLPRPRPRPKQIPRP | 0.0984 |
| RRIRWRPPRLPRPRPRPYVAPRP | -0.492 |
| RRIRCRPPRLPRPRPRPDSHPRP | -0.199 |
| RRIRLRPPRLPRPRPRPGHEPRP | -0.0844 |
| RRIRMRPPRLPRPRPRPQAKPRP | 0.0296 |
| RRIRTRPPRLPRPRPRPINNPRP | -0.793 |
| RRIRYRPPRLPRPRPRPCGFPRP | -0.241 |
| RRIRLRPPRLPRPRPRPDTMPRP | -0.286 |
| RRIRMRPPRLPRPRPRPQMDPRP | 0.224 |
| RRIRTRPPRLPRPRPRPCFAPRP | 0.083 |
| RRIRPRPPRLPRPRPRPSNTPRP | -0.316 |
| RRIRPRPPRLPRPRPRPYEIPRP | -0.0187 |
| RRIRYRPPRLPRPRPRPKSLPRP | -0.204 |
| RRIRVRPPRLPRPRPRPEVIPRP | -0.595 |
| RRIRKRPPRLPRPRPRPEDNPRP | 0.749 |
| RRIRYRPPRLPRPRPRPIQYPRP | -0.18 |
| RRIRIRPPRLPRPRPRPRYIPRP | -0.242 |
| RRIRGRPPRLPRPRPRPLNMPRP | -0.114 |
| RRIRSRPPRLPRPRPRPPKDPRP | -0.0903 |
| RRIRSRPPRLPRPRPRPMFCPRP | -0.285 |
| RRIRHRPPRLPRPRPRPYWSPRP | -0.171 |
| RRIRDRPPRLPRPRPRPPYSPRP | -0.805 |

| Sequence | shrunken log2 fold change |
| --- | --- |
| RRIRLRPPRLPRPRPRPYLHPRP | -0.447 |
| RRIRGRPPRLPRPRPRPKNWPRP | 0.466 |
| RRIRTRPPRLPRPRPRPRTQPRP | 0.172 |
| RRIRDRPPRLPRPRPRPKKMPRP | -0.0785 |
| RRIRDRPPRLPRPRPRPKCAPRP | 0.169 |
| RRIRPRPPRLPRPRPRPQYGPRP | -0.725 |
| RRIRPRPPRLPRPRPRPIGCPRP | -0.0888 |
| RRIRFRPPRLPRPRPRPNHLPRP | -1.06 |
| RRIRERPPRLPRPRPRPFMQPRP | -0.178 |
| RRIRARPPRLPRPRPRPSAAPRP | 0.848 |
| RRIRDRPPRLPRPRPRPRPVPRP | 0.466 |
| RRIRLRPPRLPRPRPRPKLEPRP | -0.354 |
| RRIRDRPPRLPRPRPRPEMIPRP | 0.0934 |
| RRIRFRPPRLPRPRPRPWIDPRP | -0.0232 |
| RRIRRRPPRLPRPRPRPANEPRP | 0.245 |
| RRIRVRPPRLPRPRPRPAVSPRP | 0.0786 |
| RRIRSRPPRLPRPRPRPVYQPRP | -1.16 |
| RRIRCRPPRLPRPRPRPQCMPRP | -0.833 |
| RRIRWRPPRLPRPRPRPDAFPRP | 0.0334 |
| RRIRMRPPRLPRPRPRPMPEPRP | 0.627 |
| RRIRIRPPRLPRPRPRPMRQPRP | 0.3 |
| RRIRKRPPRLPRPRPRPLHYPRP | -0.00227 |
| RRIRKRPPRLPRPRPRPLIDPRP | 0.449 |
| RRIRFRPPRLPRPRPRPCDPPRP | -0.0886 |
| RRIRYRPPRLPRPRPRPTMVPRP | -0.269 |
